# Results reported in patent US20210261648A1 (published 2021).
# Positions count from the first letter of the chain named. Names may count otherwise.
# T1: FcγRIIa type R (human, UniProt P12318 34-217)
# T1 chain: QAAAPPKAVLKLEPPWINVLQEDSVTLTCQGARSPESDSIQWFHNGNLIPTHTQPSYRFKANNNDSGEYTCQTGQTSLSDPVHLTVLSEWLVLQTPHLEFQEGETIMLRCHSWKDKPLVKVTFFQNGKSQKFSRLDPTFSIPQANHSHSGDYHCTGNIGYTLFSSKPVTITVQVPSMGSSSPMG
# T2: FcγRIIa type H (human, UniProt P12318 34-217)
# T2 construct: extracellular domain; also called FcγRIIaH; FcgRIIaH
# T2 sequence (looked up): T1 chain with R134H
# T3: FcγRIIb (human, UniProt P31994 43-217)
# T3 construct: extracellular domain; also called FcgRIIb; CD32B
# T3 sequence (looked up): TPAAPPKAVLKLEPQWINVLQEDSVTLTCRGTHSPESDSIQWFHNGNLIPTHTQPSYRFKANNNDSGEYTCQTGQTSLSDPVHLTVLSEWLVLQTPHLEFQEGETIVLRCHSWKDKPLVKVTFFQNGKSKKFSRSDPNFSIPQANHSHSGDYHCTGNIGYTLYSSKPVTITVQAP
# T4: FcγRIIb extracellular domain with C-terminal His tag (human, UniProt P31994 43-217)
# T4 construct: extracellular domain; For crystals it was expressed with kifunensine and trimmed with Endo F1; also called FcgRIIb; FcγRIIb extracellular region
# T4 sequence (looked up): T3 sequence (looked up)
# B1: IL6R-BP438/IL6R-L (antibody, human IgG1, kappa)
# heavy: QVQLQESGPGLVKPSETLSLTCAVSGHSISHDHAWSWVRQPPGEGLEWIGFISYSGITNYNPSLQGRVTISRDNSKNTLYLQMNSLRAEDTAVYYCARSLARTTAMDYWGEGTLVTVSSASTKGPSVFPLAPSSKSTSGGTAALGCLVKDYFPEPVTVSWNSGALTSGVHTFPAVLQSSGLYSLSSVVTVPSSSLGTQTYICNVNHKPSNTKVDKKVEPKSCDKTHTCPPCPAPDLLGDDSVFLFPPKPKDTLMISRTPEVTCVVVDVAEEDGEVKFNWYVDGVEVHNAKTKPREEQYNSTYRVVSVLTVLHQDWLNGKEYKCKVSNKALPRPTEKTISKAKGQPREPQVYTLPPSRDELTKNQVSLTCLVKGFYPSDIAVEWESNGQPENNYKTTPPVLDSDGSFFLYSKLTVDKSRWQQGNVFSCSVMHEALHNHYTQESLSLSP
# light: not shown
# notes: Alterations in EU numbering, introduced into IL6R-B3
# B2: IL6R-BP488/IL6R-L (antibody, human IgG1, kappa)
# heavy: B1 heavy with V266I, Y298D, T334I
# light: not shown
# notes: as for B1
# B3: IL6R-BP487/IL6R-L (antibody, human IgG1, kappa)
# heavy: B1 heavy with V266I, T334I, P398M
# light: not shown
# notes: as for B1
# B4: IL6R-BP554/IL6R-L (antibody, human IgG1, kappa)
# heavy: B1 heavy with D235E, V266I, E274D, T334I
# light: not shown
# notes: as for B1
# B5: IL6R-BP558/IL6R-L (antibody, human IgG1, kappa)
# heavy: B1 heavy with D235E, V266I, A269G, E274D, T334I
# light: not shown
# notes: as for B1
# B6: IL6R-BP453/IL6R-L (antibody)
# heavy: B1 heavy with T334I, P398I
# light: not shown
# notes: Printed 'P3961'
# B7: IL6R-AP002/IL6R-BP256/IL6R-L (antibody, human IgG1, kappa)
# heavy 1: B1 heavy with A269S, E270D, T334I, D358K, H437R, E441K
# heavy 2: B1 heavy with S241D, A269S, E270D, T334I
# light: not shown
# notes: Heterodimer: S239D in one chain only
# B8: variant resulting from adding S267G to IL6R-BP267/IL6R-L (antibody, human IgG1, kappa)
# heavy: B1 heavy with A269G, R332A, T334I
# light: not shown
# B9: IL6R-BP456/IL6R-L (antibody, human IgG1, kappa, name in EU numbering)
# heavy: B1 heavy with T334I, P398M
# light: not shown
# B10: IL6R-BP492/IL6R-L (antibody, human IgG1, kappa)
# heavy: B1 heavy with D235E, D239G, V266I, R332A, T334I
# light: not shown
# B11: IL6R-BP493/IL6R-L (antibody, human IgG1, kappa)
# heavy: B1 heavy with D235E, D239G, V266I, Y298D, R332A, T334I
# light: not shown
# B12: IL6R-BP466/IL6R-L (antibody, human IgG1, kappa)
# heavy: B1 heavy with A269S, E270D, Y298D, T334I, E335R
# light: not shown
# B13: IL6R-BP544/IL6R-L (antibody, human IgG1, kappa)
# heavy: B1 heavy with A269S, E270D, Y298D, T334I, R357Q
# light: not shown
# B14: IL6R-BP500/IL6R-L (antibody, human IgG1, kappa)
# heavy: B1 heavy with D235E, V266I, Y298D, R332A, T334I
# light: not shown
# B15: variant resulting from adding S267E to IL6R-BP267/IL6R-L (antibody, human IgG1, kappa)
# heavy: B1 heavy with A269E, R332A, T334I
# light: not shown
# B16: IL6R-BP454/IL6R-L (antibody, human IgG1, kappa, name in EU numbering)
# heavy: B1 heavy with T334I, P398K
# light: not shown
# B17: IL6R-BP465/IL6R-L (antibody, human IgG1, kappa)
# heavy: B1 heavy with A269S, E270D, Y298D, T334I, E335K
# light: not shown
# B18: IL6R-BP464/IL6R-L (antibody, human IgG1, kappa, name in EU numbering)
# heavy: B1 heavy with T334I, P398Y
# light: not shown
# B19: variant resulting from adding V264I to IL6R-BP267/IL6R-L (antibody, human IgG1, kappa)
# heavy: B1 heavy with V266I, A269S, R332A, T334I
# light: not shown
# B20: IL6R-BP470/IL6R-L (antibody, human IgG1, kappa)
# heavy: B1 heavy with A269S, E270D, Y298D, T334I, E335T
# light: not shown
# B21: IL6R-BP458/IL6R-L (antibody, human IgG1, kappa, name in EU numbering)
# heavy: B1 heavy with T334I, P398Q
# light: not shown
# B22: IL6R-BP545/IL6R-L (antibody, human IgG1, kappa)
# heavy: B1 heavy with A269S, E270D, Y298D, T334I, D358E
# light: not shown
# B23: variant resulting from adding V266F to IL6R-BP267/IL6R-L (antibody, human IgG1, kappa)
# heavy: B1 heavy with V268F, A269S, R332A, T334I
# light: not shown
# B24: IL6R-BP455/IL6R-L (antibody, human IgG1, kappa, name in EU numbering)
# heavy: B1 heavy with T334I, P398L
# light: not shown
# B25: IL6R-AP009/IL6R-BP260/IL6R-L (antibody, human IgG1, kappa)
# heavy 1: B1 heavy with A269S, E270D, Y298D, T334I, D358K, H437R, E441K
# heavy 2: B1 heavy with S241E, A269S, E270D, Y298D, T334I
# light: not shown
# notes: Heterodimer: S239E in one chain only
# B26: IL6R-AP009/IL6R-BP259/IL6R-L (antibody, human IgG1, kappa)
# heavy 1: B1 heavy with A269S, E270D, Y298D, T334I, D358K, H437R, E441K
# heavy 2: B1 heavy with S241D, A269S, E270D, Y298D, T334I
# light: not shown
# notes: as for B7
# B27: variant resulting from adding S267A to IL6R-BP267/IL6R-L (antibody, human IgG1, kappa)
# heavy: B1 heavy with R332A, T334I
# light: not shown
# B28: IL6R-BP541/IL6R-L (antibody, human IgG1, kappa)
# heavy: B1 heavy with A269S, E270D, K276Q, Y298D, T334I
# light: not shown
# B29: IL6R-AP002/IL6R-BP257/IL6R-L (antibody, human IgG1, kappa)
# heavy 1: B1 heavy with A269S, E270D, T334I, D358K, H437R, E441K
# heavy 2: B1 heavy with S241E, A269S, E270D, T334I
# light: not shown
# notes: as for B25
# B30: variant resulting from adding V266M to IL6R-BP267/IL6R-L (antibody, human IgG1, kappa)
# heavy: B1 heavy with V268M, A269S, R332A, T334I
# light: not shown
# B31: IL6R-BP567/IL6R-L (antibody, human IgG1, kappa)
# heavy: B1 heavy with D239G, V266I, Y298D, R332A, T334I
# light: not shown
# B32: IL6R-BP459/IL6R-L (antibody, human IgG1, kappa, name in EU numbering)
# heavy: B1 heavy with T334I, P398R
# light: not shown
# B33: IL6R-BP559/IL6R-L (antibody, human IgG1, kappa)
# heavy: B1 heavy with D235E, D239G, V266I, E274D, Y298D, R332A, T334I
# light: not shown
# B34: IL6R-BP546/IL6R-L (antibody, human IgG1, kappa)
# heavy: B1 heavy with A269S, E270D, Y298D, T334I, L360M
# light: not shown
# B35: variant resulting from adding E269D to IL6R-BP267/IL6R-L (antibody, human IgG1, kappa)
# heavy: B1 heavy with A269S, E271D, R332A, T334I
# light: not shown
# Molecular target: T1, FcγRIIa type R
# Test: SPR (Biacore), captured antibody, soluble FcγR
row,Binder,Kd
1,B1,180 nM
2,B2,74 nM
3,B3,39 nM
4,B4,150 nM
5,B5,330 nM

# Molecular target: T2, FcγRIIa type H
# Test: SPR (Biacore), captured antibody, soluble FcγR
row,Binder,Kd
1,B1,1600 nM
2,B2,1600 nM
3,B3,840 nM
4,B4,2300 nM
5,B5,4900 nM

# Molecular target: T3, FcγRIIb
# Test: SPR (Biacore), captured antibody, soluble FcγR
row,Binder,Kd
1,B2,1.9 nM
2,B3,1.2 nM
3,B5,9 nM

# Molecular target: T5, FcγRIa (human, UniProt P12314 16-292)
# T5 construct: Whole entry named; also called FcgRIa; CD64A
# Test: SPR (Biacore), captured antibody, soluble FcγR
# T5 sequence (P12314 16-292): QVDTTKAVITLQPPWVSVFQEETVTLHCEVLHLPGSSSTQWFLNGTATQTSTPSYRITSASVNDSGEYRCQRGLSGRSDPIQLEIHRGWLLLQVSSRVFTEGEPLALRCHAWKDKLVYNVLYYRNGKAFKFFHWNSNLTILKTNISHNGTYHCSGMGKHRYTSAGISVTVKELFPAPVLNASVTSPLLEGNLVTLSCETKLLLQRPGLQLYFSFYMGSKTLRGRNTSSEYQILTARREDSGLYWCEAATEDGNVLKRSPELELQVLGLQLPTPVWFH
row,Binder,Kd
1,B2,2.2 nM
2,B3,1.2 nM
3,B4,8 nM

# Molecular target: T4, FcγRIIb extracellular domain with …
# Test: SPR (Biacore)
Binder,binding result,binding relative to IL6R-B3/IL6R-L
B6,binds,
B7,binds,
B8,binds,
B9,binds,
B10,,≥ 100 times
B11,,≥ 100 times
B12,binds,
B13,binds,
B14,,≥ 100 times
B15,binds,
B16,binds,
B17,binds,
B18,binds,
B19,binds,
B20,binds,
B21,binds,
B22,binds,
B23,binds,
B24,binds,
B25,binds,
B26,binds,
B27,binds,
B28,binds,
B29,binds,
B30,binds,
B31,,≥ 100 times
B32,binds,
B33,,≥ 100 times
B34,binds,
B35,binds,

# Molecular target: T1, FcγRIIa type R
# Test: SPR (Biacore); parent = IL6R-B3/IL6R-L
row,Binder,KD(IIaR) of the parent polypeptide/KD(IIaR) of the altered polypeptide
1,B2,14.8 fold
2,B3,28.3 fold

# Molecular target: T3, FcγRIIb
# Test: SPR (Biacore); parent = IL6R-B3/IL6R-L
row,Binder,KD(IIb) of the parent polypeptide/KD(IIb) of the altered polypeptide
1,B2,1680 fold
2,B3,2700 fold
